According to patent US20250011418A1 (ZIELBIO, published 2025):

T1: Sec8-His (section 8 (Sec8), an antigenic region of CSP-1, tagged with a polyhistidine (His) tag)
T1 construct: also called Sec8-His antigen
T1 chain: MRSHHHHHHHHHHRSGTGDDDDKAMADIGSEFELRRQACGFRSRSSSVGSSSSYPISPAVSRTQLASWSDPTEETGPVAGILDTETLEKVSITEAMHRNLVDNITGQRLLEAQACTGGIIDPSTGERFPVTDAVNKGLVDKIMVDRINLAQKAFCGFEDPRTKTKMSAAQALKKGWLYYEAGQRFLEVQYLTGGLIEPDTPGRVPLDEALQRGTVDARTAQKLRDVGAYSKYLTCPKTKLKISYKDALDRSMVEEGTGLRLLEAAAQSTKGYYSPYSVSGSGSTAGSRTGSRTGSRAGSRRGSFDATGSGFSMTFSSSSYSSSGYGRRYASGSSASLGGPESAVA


Molecular target: T1, Sec8-His (section 8 (Sec8), an …)
Test: BLI (Octet), single shot: antibody on anti-human IgG tips, 24 nM Sec8-His
Protocol: After humanization, the antibodies were tested for their capability to bind to an antigenic region of CSP-1 called section 8 (Sec8). Antigen binding was assessed by single-shot Octet analysis. Antibodies were loaded onto anti-human IgG tips, and the loaded tips were dipped into wells containing the Sec8-His antigen. Scouting experiments were used to determine ideal conditions for loading (10 minute incubation in 1 μg/mL IgG) and antigen binding (5 minute incubation in 24 nM Sec8-His, followed by a 5 minute dissociation step in buffer). Two negative controls were included with each experiment. First, a tip was loaded with irrelevant IgG dipped into 24 nM Sec8-His to control for non-specific interactions between the tip and the antigen. Next, tips loaded with humanized 1D7 variants were dipped into 24 nM GST-His to control for off-target binding of the antibody (a significant risk if a given variant is destabilized and/or exposes significant hydrophobic surface). The data from the irrelevant IgG control were subtracted from the data obtained with the […]-loaded tips. The mean and standard deviation of the signal change values for the GST-His control wells were used to calculate a threshold for positive binding (mean+3 standard deviations of the GST-His signal). Variants that were below this threshold are considered to have no specific binding to Sec8.

Binder | binding result
humanized anti-CSP-1 antibody, Antibody Number 16 (Table 1) (antibody, human IgG1, V domains shown, also called Antibody 16) VH: EVQLVESGGDLVKPGGSLKLSCAASGFTFSRYGMSWVRQTPDKRLEWVATISIGGTYTYYPDSMKGRFTISRDNAKNTLYLQMSSLKSEDTAMYYCARRGYGNYSYYGMDYWGQGTSVTVSS VL: DIVMTQAAFSNPVTLGTSASISCRSSKSLLHSNGITYLYWYLQKPGQSPQLLIYQMSNLASGVPDRFSSSGSGTDFTLRISRVEAEDVGVYYCAQNLELPLTFGAGTKLELK | binds
humanized anti-CSP-1 antibody, Antibody Number 19 (Table 1) (antibody, human IgG1, V domains shown, also called Antibody 19) VH: EVQLVESGGDLVKPGGSLKLSCAASGFTFSRYGMSWVRQTPDKRLEWVATISIGGTYTYYPDSMKGRFTISRDNAKNTLYLQMSSLKSEDTAMYYCARRGYGNYSYYGLDYWGQGTSVTVSS VL: DIVMTQAAFSNPVTLGTSASISCRSSKSLLHSNGITYLYWYLQKPGQSPQLLIYQMSNLASGVPDRFSSSGSGTDFTLRISRVEAEDVGVYYCAQNLELPLTFGAGTKLELK | binds
humanized anti-CSP-1 antibody, Antibody Number 18 (Table 1) (antibody, human IgG1, V domains shown, also called Antibody 18) VH: EVQLVESGGDLVKPGGSLKLSCAASGFTFSRYGMSWVRQTPDKRLEWVATISIGGTYTYYPDSMKGRFTISRDNAKNTLYLQMSSLKSEDTAMYYCARRGYGQYSYYGMDYWGQGTSVTVSS VL: DIVMTQAAFSNPVTLGTSASISCRSSKSLLHSNGITYLYWYLQKPGQSPQLLIYQMSNLASGVPDRFSSSGSGTDFTLRISRVEAEDVGVYYCAQNLELPLTFGAGTKLELK | binds
humanized anti-CSP-1 antibody, Antibody Number 17 (Table 1) (antibody, human IgG1, V domains shown, also called Antibody 17) VH: EVQLVESGGDLVKPGGSLKLSCAASGFTFSRYGMSWVRQTPDKRLEWVATISIGGTYTYYPDSMKGRFTISRDNAKNTLYLQMSSLKSEDTAMYYCARRGYGSYSYYGMDYWGQGTSVTVSS VL: DIVMTQAAFSNPVTLGTSASISCRSSKSLLHSNGITYLYWYLQKPGQSPQLLIYQMSNLASGVPDRFSSSGSGTDFTLRISRVEAEDVGVYYCAQNLELPLTFGAGTKLELK | binds
humanized anti-CSP-1 antibody, Antibody Number 21 (Table 1) (antibody, human IgG1, V domains shown, also called Antibody 21) VH: EVQLVESGGDLVKPGGSLKLSCAASGFTFSRYGMSWVRQTPDKRLEWVATISIGGTYTYYPDSMKGRFTISRDNAKNTLYLQMSSLKSEDTAMYYCARRGYGNYSYYGVDYWGQGTSVTVSS VL: DIVMTQAAFSNPVTLGTSASISCRSSKSLLHSNGITYLYWYLQKPGQSPQLLIYQMSNLASGVPDRFSSSGSGTDFTLRISRVEAEDVGVYYCAQNLELPLTFGAGTKLELK | binds
humanized anti-CSP-1 antibody, Antibody Number 20 (Table 1) (antibody, human IgG1, V domains shown, also called Antibody 20) VH: EVQLVESGGDLVKPGGSLKLSCAASGFTFSRYGMSWVRQTPDKRLEWVATISIGGTYTYYPDSMKGRFTISRDNAKNTLYLQMSSLKSEDTAMYYCARRGYGNYSYYGIDYWGQGTSVTVSS VL: DIVMTQAAFSNPVTLGTSASISCRSSKSLLHSNGITYLYWYLQKPGQSPQLLIYQMSNLASGVPDRFSSSGSGTDFTLRISRVEAEDVGVYYCAQNLELPLTFGAGTKLELK | binds
humanized anti-CSP-1 antibody, Antibody Number 2 (Table 1) (antibody, human IgG1, V domains shown, also called Antibody 2) VH: QIQLVQSGPELKKPGETVKISCKASGYTFTDYSMHWVKQAPGKGLKWMGWIQTETGEPTYADDFKGRFAFSLETSASTAYLQINNLKNEDTATYFCAPGGFAYWGQGTLVTVSA VL: DIVMTQAAPSVPVTPGESVSISCRSSKSLLHSNGNTYLYWFLQRPGQSPQLLIYRMSNLASGVPDRFSGSGSGTAFTLRISRVEAEDVGVYYCMQHLEYPLTFGAGTKLELK | binds
humanized anti-CSP-1 antibody, Antibody Number 15 (Table 1) (antibody, human IgG1, V domains shown, also called Antibody 15) VH: QIQLVQSGPGLKQPGGSVRISCAASGYTFTDYSMHWVKQAPGKGLKWMGWINTETGEPTYADDFKGRFTFSLDTSKSTAYLQINSLRAEDTATYFCAPGGFAYWGQGTLVTVSS VL: DIVMTQSAPSLPVTPGQSVSISCRSSKSLLHSNGNTYLYWFLQKPGQSPQLLIYRMSNRASGVPDRFSGSGSGTDFTLKISRVEAEDVGVYYCMQHLEYPLTFGQGTKLEIK | binds
humanized anti-CSP-1 antibody, Antibody Number 11 (Table 1) (antibody, human IgG1, V domains shown, also called Antibody 11) VH: QIQLVQSGPEVKKPGASVKISCKASGYTFTDYSMHWVKQAPGQGLKWMGWINTETGEPTYADDFKGRFTFTLDTSTSTAYLEISSLRSEDTATYFCAPGGFAYWGQGTLVTVSS VL: DIVMTQSAPSVPVTPGQSVSISCRSSKSLLHSNGNTYLYWFLQKPGQSPQLLIYRMSNRASGVPDRFSGSGSGTDFTLKISRVEAEDVGVYYCMQHLEYPLTFGQGTKLEIK | binds
humanized anti-CSP-1 antibody, Antibody Number 12 (Table 1) (antibody, human IgG1, V domains shown, also called Antibody 12) VH: QIQLVQSGPEVKKPGASVKISCKASGYTFTDYSMHWVKQAPGQGLKWMGWINTETGEPTYADDFKGRFTFTLDTSTSTAYLEISSLRSEDTATYFCAPGGFAYWGQGTLVTVSS VL: DIVMTQSAPSLPVTPGQSVSISCRSSKSLLHSNGNTYLYWFLQKPGQSPQLLIYRMSNRASGVPDRFSGSGSGTDFTLKISRVEAEDVGVYYCMQHLEYPLTFGQGTKLEIK | binds
humanized anti-CSP-1 antibody, Antibody Number 3 (Table 1) (antibody, human IgG1, V domains shown, also called Antibody 3) VH: QIQLVQSGPELKKPGETVKISCKASGYTFTDYSMHWVKQAPGKGLKWMGWINTETGEPTYADDFKGRFAFSLETSASTAYLQINNLKNEDTATYFCAPGGFAYWGQGTLVTVSA VL: DIVMTQAAPSVPVTPGESVSISCRSSKSLLHSSGNTYLYWFLQRPGQSPQLLIYRMSNLASGVPDRFSGSGSGTAFTLRISRVEAEDVGVYYCMQHLEYPLTFGAGTKLELK | binds
humanized anti-CSP-1 antibody, Antibody Number 13 (Table 1) (antibody, human IgG1, V domains shown, also called Antibody 13) VH: QIQLVQSGPEVKKPGASVKISCKASGYTFTDYSMHWVRQAPGQGLEWMGWINTETGEPTYAQKFQGRFTFTLDTSTSTAYLEISSLRSEDTAVYFCAPGGFAYWGQGTLVTVSS VL: DIVMTQSAPSVPVTPGQSVSISCRSSKSLLHSNGNTYLYWFLQKPGQSPQLLIYRMSNRASGVPDRFSGSGSGTDFTLKISRVEAEDVGVYYCMQHLEYPLTFGQGTKLEIK | binds
humanized anti-CSP-1 antibody, Antibody Number 10 (Table 1) (antibody, human IgG1, V domains shown, also called Antibody 10) VH: QIQLVQSGPELKKPGETVKISCKASGYTFTDYSMHWVKQAPGKGLKWMGWINTETGEPTYADDFKGRFAFSLETSASTAYLQINNLKNEDTATYFCAPGGFAYWGQGTLVTVSA VL: DIVMTQSAPSLPVTPGQSVSISCRSSKSLLHSNGNTYLYWFLQKPGQSPQLLIYRMSNRASGVPDRFSGSGSGTDFTLKISRVEAEDVGVYYCMQHLEYPLTFGQGTKLEIK | binds
humanized anti-CSP-1 antibody, Antibody Number 14 (Table 1) (antibody, human IgG1, V domains shown, also called Antibody 14) VH: QIQLVQSGPGLKQPGGSVRISCAASGYTFTDYSMHWVKQAPGKGLKWMGWINTETGEPTYADDFKGRFTFSLDTSKSTAYLQINSLRAEDTATYFCAPGGFAYWGQGTLVTVSS VL: DIVMTQSAPSVPVTPGQSVSISCRSSKSLLHSNGNTYLYWFLQKPGQSPQLLIYRMSNRASGVPDRFSGSGSGTDFTLKISRVEAEDVGVYYCMQHLEYPLTFGQGTKLEIK | binds
humanized anti-CSP-1 antibody, Antibody Number 6 (Table 1) (antibody, human IgG1, V domains shown, also called Antibody 6) VH: QIQLVQSGPELKKPGETVKISCKASGYTFTDYSMHWVKQAPGKGLKWMGWINTETGEPTYADDFKGRFAFSLETSASTAYLQINNLKNEDTATYFCAPGGFAYWGQGTLVTVSA VL: DIVMTQAAPSVPVTPGESVSISCRSSKSLLHSNGNTYLYWFLQRPGQSPQLLIYRISNLASGVPDRFSGSGSGTAFTLRISRVEAEDVGVYYCMQHLEYPLTFGAGTKLELK | binds
humanized anti-CSP-1 antibody, Antibody Number 7 (Table 1) (antibody, human IgG1, V domains shown, also called Antibody 7) VH: QIQLVQSGPEVKKPGASVKISCKASGYTFTDYSMHWVKQAPGQGLKWMGWINTETGEPTYADDFKGRFTFTLDTSTSTAYLEISSLRSEDTATYFCAPGGFAYWGQGTLVTVSS VL: DIVMTQAAPSVPVTPGESVSISCRSSKSLLHSNGNTYLYWFLQRPGQSPQLLIYRMSNLASGVPDRFSGSGSGTAFTLRISRVEAEDVGVYYCMQHLEYPLTFGAGTKLELK | binds
humanized anti-CSP-1 antibody, Antibody Number 4 (Table 1) (antibody, human IgG1, V domains shown, also called Antibody 4) VH: QIQLVQSGPELKKPGETVKISCKASGYTFTDYSMHWVKQAPGKGLKWMGWINTETGEPTYADDFKGRFAFSLETSASTAYLQINNLKNEDTATYFCAPGGFAYWGQGTLVTVSA VL: DIVMTQAAPSVPVTPGESVSISCRSSKSLLHSNGNTYLYWFLQRPGQSPQLLIYRVSNLASGVPDRFSGSGSGTAFTLRISRVEAEDVGVYYCMQHLEYPLTFGAGTKLELK | binds
humanized anti-CSP-1 antibody, Antibody Number 9 (Table 1) (antibody, human IgG1, V domains shown, also called Antibody 9) VH: QIQLVQSGPELKKPGETVKISCKASGYTFTDYSMHWVKQAPGKGLKWMGWINTETGEPTYADDFKGRFAFSLETSASTAYLQINNLKNEDTATYFCAPGGFAYWGQGTLVTVSA VL: DIVMTQSAPSVPVTPGQSVSISCRSSKSLLHSNGNTYLYWFLQKPGQSPQLLIYRMSNRASGVPDRFSGSGSGTDFTLKISRVEAEDVGVYYCMQHLEYPLTFGQGTKLEIK | binds
humanized anti-CSP-1 antibody, Antibody Number 5 (Table 1) (antibody, human IgG1, V domains shown, also called Antibody 5) VH: QIQLVQSGPELKKPGETVKISCKASGYTFTDYSMHWVKQAPGKGLKWMGWINTETGEPTYADDFKGRFAFSLETSASTAYLQINNLKNEDTATYFCAPGGFAYWGQGTLVTVSA VL: DIVMTQAAPSVPVTPGESVSISCRSSKSLLHSNGNTYLYWFLQRPGQSPQLLIYRLSNLASGVPDRFSGSGSGTAFTLRISRVEAEDVGVYYCMQHLEYPLTFGAGTKLELK | binds
